Experiment: yeast display, Sf9 membrane polyspecificity reagent, FACS + sequencing; frameworks hold sequencing errors
How it was run: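 In a synthetic yeast display library (Saccharomyces cerevisiae BJ5465), nanobody expression was induced with galactose for 36–48 hours. FACS gates were set low and high (top ~1%) using anti-HA fluorescence for expression and streptavidin fluorescence for binding of the Sf9 membrane reagent. Each polyreactivity label is drawn from the gate of origin.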

Row | Sequence | polyreactivity (PSR sort gate)
1 | QVQLVESGGGLVQAGGSLRLSCAASGSTFQRYAMGGSRQAPGKERELVAAITAGGSTYYADSVKGRFTISRDNAKNTVYLQLNSLKPEDTAVYYCNAAWFYRYGYWGQGTQVTVSS | high polyreactivity
2 | QVQLVESGGGLVQAGGSLRLSCAASGSTFQRYAMGWYRQAPGKERELVASISTSGGSTYYAHSVKGRFTISRDNAKNTVYLQMNSLKPEDTAVYYCAAQGWSRQVREGWIKRDYWGQGTQVTVSS | high polyreactivity
3 | QVQLVESGGGLVQAGGSLRLSCAASGSTFQRYVMGWYRPAPGKERELVAAITRTGASTYYADSVKGRFTISRDYAKNTVDLQMNSRKPEDTAGYYCAARYPLGSYTYDFWGQGTQVTVSS | high polyreactivity
4 | QVQLVESGGGLVQAGGSLRLSCAASGSTFQSNAMGGYRQAPGKERELVAAISSSAGTTFYADSVKGRFTISRDNAKNTVYLQMNSLKPEDTAVYYCAAEYSRSYIEYDYWGQGTQVTVSS | low polyreactivity
5 | QVQLVESGGGLVQAGGSLRLSCAASGSTFQSNAMGWYRQAPGKERELVAAINSGTSTYYADSVKGRFTISRDNAKNTVYLQMNSLKPEDTAVYYCAADGIWGEYYYSELGDYDYWGQGTQVTVSS | low polyreactivity
6 | QVQLVESGGGLVQAGGSLRLSCAASGSTFQSYAMGWYRQAPGKERELVAAISTSDTDRTYYADSVKGRFTISRDNAKNTVYLQMNSLKPEDTAVYYCNAEGTYRPEYDSWGQGTQVTVSS | low polyreactivity
7 | QVQLVESGGGLVQAGGSLRLSCAASGSTFQSYAMGWYRQAPGKERELVAGITSGDSTNYADSVKGRFTISRDNAKNTVYFQMISLKPEDTAVYYCNAVTQASYYYWGQGTQVTVSS | low polyreactivity
8 | QVQLVESGGGLVQAGGSLRLSCAASGSTFQSYAMGWYRQAPWKERELVAAITTTGTRTYYADSVKGRFTISRDNAKNTVYLQMNSLKPEDTAVYYCNAQRLQAHRTSRRYGYWGQGTQVTVSS | high polyreactivity
9 | QVQLVESGGGLVQAGGSLRLSCAASGSTFQTNAMGWYRQAPGKERELVAAINSGGGTNYADSVKGRFTFSRDNAKYTVYLQMNSLKPEDSAVYYCAAAYFDFWGWLHDYWGQGTQVTVSS | low polyreactivity
10 | QVQLVESGGGLVQAGGSLRLSCAASGSTFQTYAMGWYRQAPGKERELLAAINWRSGSTYYADSVKGRFTISRDNAKNTVYLQMNSLTPEDTAVSYCAAELDFSPGYYYLYDYWGQGTQVTVSS | low polyreactivity
11 | QVQLVESGGGLVQAGGSLRLSCAASGSTFQTYAMGWYRQAPGKERELVAAITWRGGSTYYADSVKGRFTISRDNAKTTVYLQMNSLKPEDTAVYSCAAKWHGAHDHRAAYESWGQGTQVTVSS | low polyreactivity
12 | QVQLVESGGGLVQAGGSLRLSCAASGSTFQVNAMGWYRQAPGKERELVASISGGSSTNYADSVKGRFTISRDNAKNTVYLQMNSLKPEDTAVYYCAAYYLSGLRVAYDYWGQGTQVTVSS | low polyreactivity
13 | QVQLVESGGGLVQAGGSLRLSCAASGSTFQVYAMGLYRQAPGKERELVASITSGGSTYADSVKGRFTISRDNAKNTVYLQINSLKPEDTAVYYCAAGGYFYPYTYDYWGQGTQVTVSS | low polyreactivity
14 | QVQLVESGGGLVQAGGSLRLSCAASGSTFQVYAMGWYRQAPGKERELVATIRGVGSTNYADSVKGRFTISRDNAKKTVYLQMNSLKPEDTAVYYCNAAVSQFSHRWRRRITFDYWGQGTQVTVSS | low polyreactivity
15 | QVQLVESGGGLVQAGGSLRLSCAASGSTFQYNAMGWYRQAPGKERELVAVITRRGGRTYYADSVKGRFTISRDNAKNTVYLQMNSLKPEDTAVYYCAAYYDYTHRFYYWGQGTQVTVSS | high polyreactivity
16 | QVQLVESGGGLVQAGGSLRLSCAASGSTFQYNVMGWSRQAPGKERELVAAIRQSGSTTYYADSVKGRFTISRDNAKNTVYLQMNSLKPEDSAVYYCAKRYHNWANSRMDYWGQGSQVTVSS | low polyreactivity
17 | QVQLVESGGGLVQAGGSLRLSCAASGSTFQYNVMGWYRQAPGKERELVAAISRSGTRTSYADSVKGRFTISRDYAKNTVYLQMNTLKPEDTAVYYCAAVVYHRYYSGYYYWGQGTQVTVST | high polyreactivity
18 | QVQLVESGGGLVQAGGSLRLSCAASGSTFQYYAMGWYRQAPGKERELVAAIRTGGSTNYADSVKGRFTISRDNAKNTFYLQMNSLKPEDTAVYYCAKRSLRSYRMNYWGQGTQVTVSS | high polyreactivity
19 | QVQLVESGGGLVQAGGSLRLSCAASGSTFQYYAMGWYRQAPGKERELVAAISSSGGSTYYADSVKGRFTISRDNAKNTVYLQMNSLKPEDTAVYYCAKRFRRFTYTRDYWGQGTQVTVSS | high polyreactivity
20 | QVQLVESGGGLVQAGGSLRLSCAASGSTFQYYAMGWYRQAPGKERELVAAISSSGGSTYYADSVKGRFTISRDYAKNTVYFQMNSQKPEDTAVYYCAKRFRRFTYTRDYWGQGTQVTVTS | high polyreactivity
21 | QVQLVESGGGLVQAGGSLRLSCAASGSTFRANAMGWYRQAPGTERELVAVISSGGRTYYADSVKGRFTMSRDNAKTTVYLQMNSLKPEDTAVYYCAKDDYSVWYYYDYDYWGQGTQVTVSS | high polyreactivity
22 | QVQLVESGGGLVQAGGSLRLSCAASGSTFRAYAMGWYRQAPGKEREFVADISWSGGSTYYADSVKGRFTISRDNAKNTVYLQMNSLKPEDTAVYYCAAEAAPLIIVTYDYWGQGTQVTVSS | low polyreactivity

Row | Sequence | polyreactivity (PSR sort gate)
23 | QVQLVESGGGLVQAGGSLRLSCAASGSTFREYTMGWYRQAPGKERELVAAITNSGGSTYYADSVKGRFTISRDNAKNTVYLQMNSLKPEDTAVYYCAAEVGIVDYDYWGQGTQVTVSS | low polyreactivity
24 | QVQLVESGGGLVQAGGSLRLSCAASGSTFRFNAMGWYRQAPGKERELVAAISGSGGSTYYADSVKGRFTISRDNAKNTVYLQMNSLKPEDTAVYYCAASASSRSYFKSYYWGQGTQVTVSS | high polyreactivity
25 | QVQLVESGGGLVQAGGSLRLSCAASGSTFRFNAMGWYSQAPGKERELVAAITGIGGITYYADSVKGRFTISRDNAKNTVYLQMNSLKPEDTAVYYCNAVAARYSVRNGYSTHYDYWGQGTQVTVSS | high polyreactivity
26 | QVQLVESGGGLVQAGGSLRLSCAASGSTFRFYAMGWYRQAPGKERELLAAINGSGGSTYYADSVKGRFTISRDKAKSTVNLQMNSLKPEDTAVYYSAVLYRYGYDYWGQGTQVTVSS | low polyreactivity
27 | QVQLVESGGGLVQAGGSLRLSCAASGSTFRGNAMGWYRQAPGKERELVAAISRRGGSTNYADSVKGRFTISRDNAKNTVYLQMNSLKPEDTAVYYCNKGDYRSAYRHIEYGYWGQGTQVTVSS | low polyreactivity
28 | QVQLVESGGGLVQAGGSLRLSCAASGSTFRGYALGWYRQAPGKERELVATISGSDGTTYYADSVKGRFTISRDNAKNTVYLQMNSLKPEDTAVYYCAAGETFEMYYWGQGTQVTVSS | low polyreactivity
29 | QVQLVESGGGLVQAGGSLRLSCAASGSTFRGYAMGWYRQAPGKERELVAAISSRGARTHYADSVKGRFTISRDNAKNTVYLQMNSLKPEDTAVYYCNKRQVFVSTGEYELDYWGQGTQVTVSS | low polyreactivity
30 | QVQLVESGGGLVQAGGSLRLSCAASGSTFRGYAMGWYRQAPGKERELVAAISWSGVSTYYADSVKGRFTISRDNAKNTVYLQMNSLKPEDTAVYYCAAGYSSAYLRFGYWGQGTQVTVSS | low polyreactivity
31 | QVQLVESGGGLVQAGGSLRLSCAASGSTFRGYAMGWYRQAPGKERELVASISWSGGSTYYADSVKGRFTISRDNAKNTVYLQMNSLKPEDTAVYYCAARKRWRNIRMDYWGQGTQVTVSS | high polyreactivity
32 | QVQLVESGGGLVQAGGSLRLSCAASGSTFRGYVMGWYRQAPGKERELVAAITYSGGSTYYADSVKGRFTISRDNAKNTVYLQLNSLKPEDTAVYYGADEIYDSYYEDDYWGQGTQVTVSS | high polyreactivity
33 | QVQLVESGGGLVQAGGSLRLSCAASGSTFRHNVMGWYRQAPGKERELVAAISYSGGSTHYADSVKGRFTISRDNAKNTVYLQMNSLKPEDTAVYYCNRYSYDSHFLYPFRGHDYWGQGTQVTVSS | low polyreactivity
34 | QVQLVESGGGLVQAGGSLRLSCAASGSTFRHYAMGWYRQAPGKERELVAVISWGGTSTYYADSVKGRFTISRDNAKNTVYLQMNSLKPEDTAVYYCAVKYAYPYAGVSAIRYYYWGQGTQVTVSS | low polyreactivity
35 | QVQLVESGGGLVQAGGSLRLSCAASGSTFRINAMGWYRQAPGNERELVAAMSYNGGGTYADSVKGRFTISRDNAKNTVYLQMNSLKPEDTAVSYCAADTYYGQAYTAYTYRLYDYWGEGTQVTVSS | low polyreactivity
36 | QVQLVESGGGLVQAGGSLRLSCAASGSTFRIYAMGWYRQAPGREREFVAAITWTGGSTYYADSVKGRFTISRDNAKNTVYLQMNSLKPEDTADYYCAARQLSDYYWGQGTQVTVSS | high polyreactivity
37 | QVQLVESGGGLVQAGGSLRLSCAASGSTFRKYAMGWYRQAPGKEREFVAAISSSGGRTYYADSVKGRFTISRDNAKNTVYLQMNSLKPEDTAVYYCNAYFRYSYDYWGQGTQVTVSS | high polyreactivity
38 | QVQLVESGGGLVQAGGSLRLSCAASGSTFRKYTMGWYRQAPGKERELVASISRRGGSTYYADSVKGRFTISRDNAKNTVYLQMNSLKPEDTAVYYCNVTYSQYGYDYWGQGTQVTVSS | high polyreactivity
39 | QVQLVESGGGLVQAGGSLRLSCAASGSTFRLNAMGWYRQARGKEWEFVAAISSRGGSTYYADSVKGRFTISRDNAKNTDYLQMNSLKPEDTAVYYCKAVRSKLIENDYWGQGTQVTVSS | high polyreactivity
40 | QVQLVESGGGLVQAGGSLRLSCAASGSTFRLNAMGWYRQSPGKERELVAAISRGGSTNYADSVKGRFTISRDNAKNTVYLQMNSLKPEDTAVYYCATRRSYKYYWGQGTQVTVSS | high polyreactivity
41 | QVQLVESGGGLVQAGGSLRLSCAASGSTFRLYAMGWYRQAPGKERELVAAISQRGGSTYYADSVKGRFTISRDNAKNTVYLQMNSLKPEDTAVYYCNTDWYRKWGKPYYYWGQGTQVTVSS | high polyreactivity
42 | QVQLVESGGGLVQAGGSLRLSCAASGSTFRLYTKGWYRQAPGKERELVAAISVSGVSTYYADSVKGRFTISRDNAKNTVYVQMNSLKPEDTAVYYCAKRGYLFLRGSVRVGYNYWGQGTQVTVSS | low polyreactivity
43 | QVQLVESGGGLVQAGGSLRLSCAASGSTFRNNAMGWYRQAPGKERELVAAISWIGGDTYYADSVKGRFTISRDNAKNTVYLQMNSLKPEDTAVYYCNRDFVYWPWFKFDYWGQGTQVTVSS | low polyreactivity

Reference: the nanobody polyreactivity screen of Harvey et al. (2022)
